Data published in paper PMC12449053, “Cortolezzis Ylenia Formal analysis Investigation Methodology Department of Medicine, Laboratory of Biochemistry, University of Udine, 33100 Udine, Italy”.

Key:
[1] = target: UP1 (UniProt P09651 1-196); test: ITC; 50 mM KCl; one-site fit, Kd not in material; EMSA: 50 mM Tris-HCl pH 7.4, 50 mM KCl, 1 mM EDTA, 1 mM Na3VO4, 5 mM NaF, 1 mM DTT, 8% glycerol, 25 C, 30 nM RNA; ITC: 10 mM KPi, 50 mM KCl, 25 C, 8 uM UP1; settings: protein: recombinant; tags: none (GST removed by PreScission); rG4, two stacked G-tetrads
Sequence of UP1 (P09651 1-196): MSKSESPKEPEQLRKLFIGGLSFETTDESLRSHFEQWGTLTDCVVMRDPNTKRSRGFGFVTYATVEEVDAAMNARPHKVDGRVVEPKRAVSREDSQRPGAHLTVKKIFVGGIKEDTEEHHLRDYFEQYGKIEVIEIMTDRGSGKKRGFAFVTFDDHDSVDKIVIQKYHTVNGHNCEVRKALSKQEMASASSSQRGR

[2] = target: T1, GST-hnRNPA1 (UniProt P09651 1-372); test: EMSA; 10-fold molar excess of protein; EMSA: 50 mM Tris-HCl pH 7.4, 50 mM KCl, 1 mM EDTA, 1 mM Na3VO4, 5 mM NaF, 1 mM DTT, 8% glycerol, 25 C, 30 nM RNA; ITC: 10 mM KPi, 50 mM KCl, 25 C, 8 uM UP1; settings: protein: recombinant; tags: GST (N-terminal, pGEX4T1); unable to form rG4
T1 sequence (P09651 whole entry): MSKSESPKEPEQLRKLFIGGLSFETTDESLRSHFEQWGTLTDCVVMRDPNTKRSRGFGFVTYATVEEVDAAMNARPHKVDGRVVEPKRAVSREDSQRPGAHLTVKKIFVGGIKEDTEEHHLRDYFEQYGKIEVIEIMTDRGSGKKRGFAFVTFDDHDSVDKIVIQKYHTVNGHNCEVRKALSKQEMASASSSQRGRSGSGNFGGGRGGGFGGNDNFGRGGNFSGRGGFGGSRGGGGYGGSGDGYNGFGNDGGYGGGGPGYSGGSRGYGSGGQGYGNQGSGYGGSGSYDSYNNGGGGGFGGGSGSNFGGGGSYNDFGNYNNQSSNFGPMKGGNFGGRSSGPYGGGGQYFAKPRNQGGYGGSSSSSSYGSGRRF

[3] = target: T1, GST-hnRNPA1; test: EMSA; 50 mM KCl; bound at 1:1 ratio; EMSA: 50 mM Tris-HCl pH 7.4, 50 mM KCl, 1 mM EDTA, 1 mM Na3VO4, 5 mM NaF, 1 mM DTT, 8% glycerol, 25 C, 30 nM RNA; ITC: 10 mM KPi, 50 mM KCl, 25 C, 8 uM UP1; settings: protein: recombinant; tags: GST (N-terminal, pGEX4T1); label: Cy5.5 5'; rG4

GGUGGCGGCGG (structured_RNA) [utr-c]
binding result [1]: binds

GCAGCGCCAGCCGCAGUCGCGUCCGCGAACGUAGCCGCCGC (ssRNA) [41-mer 5'UTRmut]
binding result [2]: no binding

GCAGCGGCGGCGGCAGUGGCGGCGGCGAAGGUGGCGGCGGC (structured_RNA) [41-mer 5'UTR (utr-c + utr-z)]
binding result [3]: binds
